From US20230357428A1
Several values for one entry are separate records, joined by “and”; a condition that tells them apart may be missing. Identical values can stand only once.

What was measured:
[1] = target: mix of HLA-A*02/SimPep tetramers (peptides SEQ ID NO: 51 to 59); test: yeast display, SimPep tetramer mix, 10 nM each
[2] = target: mix of HLA-A*02/SimPep tetramers (peptides SEQ ID NO: 51 to 59); test: yeast display, flow cytometry; 10 nM PRAME-004 monomer (x), SimPep tetramer mix 10 nM each (y)

yeast cells stained positive [1]: 3.3% and 2.5%
% cells, upper left quadrant (monomer-, SimPep tetramers+) [2]: 3%
% cells, upper right quadrant (monomer+, SimPep tetramers+) [2]: 0.8%
B1: stabilized scTCR R11P3D3SD (TCR)
chain: ILNVEQSPQSLHVQEGDSTNFTCSFPSSNFYNLHWYRKETAKSPEFLFYMTSNGDEKKKGRISATLNTKEGYSYLYITDSQPEDSATYLCALYNNNDMRFGAGTRLTVKPGGGGSGGGGSGGGGSGGGGSGGGGSGVIQSPRHLVTEMGQEVTLRCKPISGHNSLFWYRETPMQGLELLIYFNNNEPIDDSGMPEDRFSAKMPNASFSTLKIQPSEPRDSAVYFCASSPGSTDTQYFGPGTRLTVL
